Laboratory results reported in IntAct's records for PubMed 28642151.

B1: Serine protease HTRA3 (Homo sapiens), P83110-1 (parent)
chain: MQARALLLAALAALALAREPPAAPCPARCDVSRCPSPRCPGGYVPDLCNCCLVCAASEGEPCGGPLDSPCGESLECVRGLCRCRWSHAVCGTDGHTYANVCALQAASRRALQLSGTPVRQLQKGACPLGLHQLSSPRYKFNFIADVVEKIAPAVVHIELFLRHPLFGRNVPLSSGSGFIMSEAGLIITNAHVVSSNSAAPGRQQLKVQLQNGDSYEATIKDIDKKSDIATIKIHPKKKLPVLLLGHSADLRPGEFVVAIGSPFALQNTVTTGIVSTAQREGRELGLRDSDMDYIQTDAIINYGNSGGPLVNLDGEVIGINTLKVTAGISFAIPSDRITRFLTEFQDKQIKDWKKRFIGIRMRTITPSLVDELKASNPDFPEVSSGIYVQEVAPNSPSQRGGIQDGDIIVKVNGRPLVDSSELQEAVLTESPLLLEVRRGNDDLLFSIAPEVVM
partner: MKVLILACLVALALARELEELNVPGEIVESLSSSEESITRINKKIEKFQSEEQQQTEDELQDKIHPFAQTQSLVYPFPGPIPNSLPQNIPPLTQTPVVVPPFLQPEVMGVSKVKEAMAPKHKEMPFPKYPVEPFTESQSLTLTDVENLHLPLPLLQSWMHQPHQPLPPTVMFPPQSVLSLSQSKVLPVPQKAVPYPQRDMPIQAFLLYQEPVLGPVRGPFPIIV
B2: Serine protease HTRA3 (Homo sapiens), P83110-1 (parent)
chain: B1 chain

Variants of: B1
Details: with casb_bovin CSN2, P02666

Variant	effect of a mutation on the interaction
MQARALLLAALAALALAREPPAAPCPARCDVSRCPSPRCPGGYVPDLCNCCLVCAASEGEPCGGPLDSPCGESLECVRGLCRCRWSHAVCGTDGHTYANVCALQAASRRALQLSGTPVRQLQKGACPLGLHQLSSPRYKFNFIADVVEKIAPAVVHIELFLRHPLFGRNVPLSSGSGFIMSEAGLIITNAHVVSSNSAAPGRQQLKVQLQNGDSYEATIKDIDKKSDIATIKIHPKKKLPVLLLGHSADLRPGEFVVAIGSPFALQNTVTTGIVSTAQREGRELGLRDSDMDYIQTDAIINYGNSGGPLVNLDGEVIGINTLKVTAGISFAIPSDRITRFLTEFQDKQIKDWKKRFIGIRMATITPSLVDALKASNPDFPEVSSGIYVAEVAPNSPSQRGGIQDGDIIVKVNGRPLVDSSELQEAVLTESPLLLEVRRGNDDLLFSIAPEVVM [R362A;E371A;Q389A]	with no effect

Variants of: B2
Details: with xiap_human XIAP

Variant	effect of a mutation on the interaction
MQARALLLAALAALALAREPPAAPCPARCDVSRCPSPRCPGGYVPDLCNCCLVCAASEGEPCGGPLDSPCGESLECVRGLCRCRWSHAVCGTDGHTYANVCALQAASRRALQLSGTPVRQLQKGACPLGLHQLSSPRYKFNFIADVVEKIAPAVVHIELFLRHPLFGRNVPLSSGSGFIMSEAGLIITNAHVVSSNSAAPGRQQLKVQLQNGDSYEATIKDIDKKSDIATIKIHPKKKLPVLLLGHSADLRPGEFVVAIGSPFALQNTVTTGIVSTAQREGRELGLRDSDMDYIQTDAIINYGNSGGPLVNLDGEVIGINTLKVTAGISFAIPSDRITRFLTEFQDKQIKDWKKRFIGIRMATITPSLVDALKASNPDFPEVSSGIYVAEVAPNSPSQRGGIQDGDIIVKVNGRPLVDSSELQEAVLTESPLLLEVRRGNDDLLFSIAPEVVM [R362A;E371A;Q389A]	with no effect
